Assay: soluble on expression in E. coli; label from the status in PepcDB or PDB records

Sequence | soluble on expression in E. coli
MQRMAKMKAMEKHHGYKVLTMIHRREMISLFGLPAYQSIDEEDAEQVLRWIRKYRDYPLELILHTPGGQLHASIQIARALKNHPKKTRVLIPHYSMSGGTIIALAADEIVMDKDAVIGPIDPQVGDPIRGVFPAPSWIHAAETKKEDADDSTLVMSDISRKALRLTRNVAKELLEGKIQPDGKEDRLEEVVEKLVSGEMIHSTPLSAREAKELGLSVNTDFPEDVHDFMRLFRPVKKTVEYVG | not soluble
MKLSTAFLTFSAVFLYGSAQQLLYLNSFKGMRVNNDMYEWCNIYISAQSDDTSFLASVYIVTAKNSKSLLNIMQDNLQNTGEIQGYPVDPPAYLTTSLSDNEMKQLNGVIYLSSAGQRVDSTFHVYDIYQARKMNIIANGYSTFLFLNSNMQTKPSRSSIISDWNQIKGSSGLLYAGFPLDSKVNVYPIFSNPITIQNSEVLFPNVETFSLSLAAFYITTNNGFSFKIKPGYYNINGTNTTSVYSTTGFYMKPAGEDDSTIVVNIENDIRCSGTSGASVVGHFPTGGNVTVGFYNGMAKYEQSAPPEDYPSYNPWTIPFIGQHFKVSSTNGTAGQYYVQYFVNQRPPRQTTPPETTTKSAGAVKLFTSVVTLLMYWL | not soluble
GPLGSMTTKQTVSLFIWLPESKQKTLFISTKNHTQFELNNIIFDVTLSTELPDKEPNAIITKRTHPVGKMADEMRKYEKDHPKVLFLESSAIHDMMSSREEINALLIKNNIPIPNSFSVKSKEEVIQLLQSKQLILPFIVKPENAQGTFNAHQMKIVLEQEGIDDIHFPCLCQHYINHNNKIVKVFCIGNTLKWQTRTSLPNVHRCGIKSVDFNNQHLEDILSWPEGVIDKQDIIENSANRFGSKILEDPILLNLTSEAEMRDLAYKVRCALGVQLCGIDFIKENEQGNPLVVDVNVFPSYGGKVDFDWFVEKVALCYTEVAKI | soluble
MKMKSLFVAMITFFSAAPFAHWQPIGNAEYTWGPFHVYTIGLFSETGTYQENERPLMLSFKYEKPIEGKNFAITLIKEIETLKLNDGDTQSWLKEMQATFPDFSPNDILNYIALPDRGYFVLNDTVLEHDFDAKFNQAFIGIWLAPNSTFVKLQPQLLGKTKSNHEATEFYLKPEIESFDEQDSTPELPPNYLLDSQKKSQG | not soluble
MGSDKIHHHHHHMALKEEIYYNSPIFIQNILTSMYGKKLMQERYGPGYEKKLQELRVKDRTVDYRIEQLERLNTFLLFIQEHTPYYRKLFQEHDIRLPFTSLDQLQTIPILEKETLRQQNEAFMSEVDAPVRGRTGGTSGKSLQVAFMREDVQERMAHLDYFKELHGFRSGMRRASFTGRTLTAINQKKPIFWRKNRPLNQLLLSIFHMKEENFPAYIEELNRFRPAALDGTPTAMLEIALYLLKHELRLDFPLVAIFPTSETVTPEMRRLLEEAFQAPVFDQYGSSEGAPIISECRERKLHLHHETGIIEPYGDGGEVVVTCFTTRGTPLVRYRIGDRMTLGQEACTCGLNGPVIESIDGRGTSYIVSEKRGKVFEGDITTIARELPNSVLRLQVEQHELNHVTLRYIPDEQRFVPKHEKILLREMQKLLGSSMKVTLEPVQQMKQEPNGKTLIVKQSMK | not soluble
MAKETVCVTGANGFIGSWIIRTLIEKGYTKIHASIYPGSDPTHLLQLPGSDSKIKIFEADLLDSDAISRAIDGCAGVFHVASPCTLDPPVDPEKELVEPAVKGTINVLEAAKRFNVRRVVITSSISALVPNPNWPEKVPVDESSWSDLDFCKSRQKWYPISKTLAEKAAWEFSEKHGTNIVTIHPSTCLGPLLQPNLNASCAVLLQLLQGSTETQEHHWLGVVHVKDVAKGHVMLFETPDASGRFLCTNGIYQFSEFAALVSKLFPEFAVHKFDKETQPGLTSCNDAAKRLIELGLVFTAVEDAVKETVQSLRDKGFL | soluble
SLFNPNELKMDFLKRPVTHSFLKLEIMPYKSAFNLRMRENIQSYYKQALRGWGSFEDELLGLKNTLKNLPLYQTLKIKPKKINAPICVVGNGPSLDLLLDFLKENEKNCIIFSCGTALKPLKTHGVKVDFQIEVERIDYLKEVLENAPLEDTPLMGANMLNPNAFNVAKEALMFMRGGSACAYISPLSIEYAAPLVGNAGVALAGLMSDEIYLCALDCAYIKGFKKHAQNSYYGDEKEIDTSSLISVEGNFKGYETFSDSLFLLSKERIEEALNHYQPKKVYNLSYGAKIKHAVSLNYSQVKL | not soluble
MRELKVVGLDADGKNIICQGAIPSEQFKLPVDDRLRAALRDDSVQPEQAQLDIEVTNVLSPKEIQARIRAGASVEQVAAASGSDIARIRRFAHPVLLERSRAAELATAAHPVLADGPAVLTMQETVAAALVARGLNPDSLTWDAWRNEDSRWTVQLAWKAGRSDNLAHFRFTPGAHGGTATAIDDTAHELINPTFNRPLRPLAPVAHLDFDEPEPAQPTLTVPSAQPVSNRRGKPAIPAWEDVLLGVRSGGRR | soluble
MGSDKIHHHHHHMKLFTSCKESVKNSIDTKYFSIAHLHSEEETMSIHIHDCYEIYYSISGENQFLIDNKLYYINPGNLFAVNEFESHYVSQVNNSTHERIVISIHPDFLKSLCTSKTNLTYCFKHRGSNFCHKVSLNKEQQSRFMYFINKIIGSHGFGADMIEYASFIELMIFLTSLFINNGESLTPIYKYSNQIEEIIRYINDNVTNDITVKHLAEHFFLSESYICRIFKLSTGTTINKYITARRISMAKALLSNGSSINDVYVKCGFNDYSNFLKSFKKAVGISPKKYSTFSTS | not soluble
MGSDKIHHHHHHMSKEASFEIQLPLFAGPFDLLLFFIERDELDIYDIPISKITNDFLEYIHRLEKMNVDIASEFILVAATLMRIKAKTLLPRPDIDPQGNEIDPREELVSHLLEYKKYKSVIAEFSELEETSLKREKRGNIAKELKLLSEVSNVETELQDIDLYKLLKVFEKVIVRWKEEKTKPVHHVVQYPYSIELQKEYIINKVSRGQRISFTEIINDIPVKMAVIYNFLSILELLALQKIQLHLGEGFNNFWIAQYDGEHAAVNEYANDIE | not soluble
MGSDKIHHHHHHMRAALAQGCDPMVLTGEVWPKWRIWTRDADRFLDDAPLNKLTAPAGIPLSSFRAATLKSVAERVSKGPLPDRAVWPWILALGARNTKRRSGLQYCPDCLRDDRIPYYRLQWRLAWHVGCEHHHCSLLDRCPHCRAPLEPHRLHAEDGHMAVCATCRGDLRDVGAITPCSDDAMAFQDAGDEAIRHGSGQFMAHPTETDAWFAGASFLSALLRRANRSDAEALHVFLERMGVAVPELPLNPGTGVELLGTAERHLLLGALWKLMRTDLADVSKYLQESGITRQGFVSKGERMPDLFAETFAQLPDNARGPRKQAVRDPGQPRPRHEVMRMWRRLQRKLEMSQR | not soluble
STFRERLLHKNLQEHFSNQDLVFLLLTPSIITESCSTHRLEHSLYKPQKGLFHRVPLVVANLGMSEQLGYKTVSGSCMSTGFSRAVQTHSSKFFEEDGSLKEVHKINEMYASLQEELKSICKKVEDSEQAVDKLVKDVNRLKREIEKRRGAQIQAAREKNIQKDPQENIFLCQALRTFFPNSEFLHSCVMSLKNRHVSKSSCNYNHHLDVVDNLTLMVEHTDIPEASPASTPQIIKHKALDLDDRWQFKRSRLLDTQDKRSKADTGSSNQDKASKMSSPETDEEIEKMKGFGEYSRSPTF | not soluble
AIATSDITSGFAAVATALEHEGQLRERLRLQRDELDVAVRSLETQLSRLHYEVDWSDAVAGARQQLRTIGSGFLELQSLVPEGMFYKYNDLWRQCSIHIVQSCLLIRFFETVHAPGPQFSDNLDQSQANDSVETCTAALVTKDEVLEMLDGEKAPTQPALRLDLEEYLLGLCGGIQELARLAANRVVLGDYATPRKLAFFCNQVYAGFRLLNFRNDSLRRSYDALKYAIQRLDSILYDLRIRKLS | soluble
MKKHIALIFTPINKKYKDALTHYAPPLGLVALANYISERLQNVRISILDGSVTHSMEDIIKFIEDEKPDIVAQSVQLISYENSLVIAKSAHNIGSINVLGGQHATQMADAIIFRQQGLIDYVSIEDGEESLLGLLEERDISEIPNLVFMKDGKINRTKYFQLDLKNAPKLDYSIVDFKPYQKLLNESNFTNPNPINNYLRVYSHKGCGNRKNSVGCVFCGRADKGVRFKSPEKFWEDIKICADEFKADYIFDVGDDFLYNHDWVSKVAEIKPDIRKKFELGIFARANRVNLSIAKKLKKIGVTDVVIGFESGDEEVLRRCNKRDTSTETSLIAADALATAGIDITASFVLGLPGENSESLKKTIKCAEKVVNIITEKLGRPPREMVGNLIEPSPGSIAYNQLLKAYPGKYYLNDYVPLDEMQRDYFKYYFGLDSLKSYLEFRKELNKAAQEIHGLVSFSDSQGWLEDEFV | not soluble
MSVATATMPQQQNNFAQTLSQSSSTASAPAPTSAPVTTPAPGSRGAALFGGVFHRGFFSKPVERTEEENYRYLMALDR | not soluble
MAGNAPLQQVQKKWAECQYSTPDGDEKEQCFHRAIAKTSIYLDREPGNPELTVWLAINKASLAGAQGGFGALSLAKEAKSLLEGVIATSPQTLDGSAYTSLGSLYYKVPGWPIGFGDDDKAEEMLKKALEINPKGIDPNYFYGDFLAEEGRDKEAKVYLTRAMQASPRPDRPLADKGRKLEIEATLGRLKLEHHHHHH | soluble
GMDPKHGNLFADVPVGAPDEIFQPLLERKGLKIERIISNGQASPPGFWYDSPQDEWVMVVSGSAGIECEGDTAPRVMRPGDWLHVPAHCRHRVAWTDGGEPTVWLAVHCDAA | soluble
MGSDKIHHHHHHMERMKAFLTDENFKHEINFDNDLLPYKIYQTTIANGYPDALFHWHPELEISYIYEGTAQYHIDYDYFNSQTDDIILVRPNGMHSIHPIKNKMQKAQTLLFHLDLVGYSLLDQISLRYLQPLQNSTFKLVPCIKPDMLGYQDIKNCLFAIFDIYQRQGRHFELLLKAKLQELIYLLYFHQYVLRKHSDDMYRKNEKIRELIDYIHQHYQEKLFIISLADIIGYSKTHFMTVFKQHTGTSCTDFIIQFRLSKACDLLVNSIKPILEVASEVGFTNLSNFNRQFKRYYQITPSQYRKQFKKTQK | not soluble
HHHHHHGSQEAPHFKPGEDPRQPHQEWKLIENMSDEFEGKKIDEKKWQISGQGWIGRAPGLFLAENISLNNGSLQITTTMLPEPIVKNNKTYTHGGGYVGSRNGMTYGYYECEMKANKTFMSSTFWLINEGKDRLGCDKRTTELDIQESVGQITNDADWMKYFDQTMNSNTHSRNIPEGCEYEKGSSKGKAELGGKAYEDFHVYGVWWKSKDEIIFFLDGKMQSKVTPPADFDIEMYLRMVVETYDWNPVPKDGGMTGSKEDRTTTYNWVRSWQLVDSKN | soluble
KPGKQIPTLEDAKKELKIPDQDKEQNGNIARQRHVVNAYAVGRIADEEGLFRFQLDDKGKWGNPQLLVKKVRHMKVRYIYVSGCPEDDDAGKEETFKYTDKFDSAQNAVTPAGVEVLLSSGTDTKIAASSDNHIYAYRIDATIRGGNVCANRTL | not soluble
IVKASTYMGKRRIGALISMERETGMTDYVETGIPMNANLTSELLINTFIPNTPLHDGAVIINNDTILAAACYLPLSENPFISKELGTRHRAALGVSEVTDCLTIVVSEETGHISLTKNGE | soluble
SNAMSARKLFYLGPQGTFTHQAAVNAAQELARFEPQGFDLMPMDDVPQILDAAQHGDGWGIVAWENNVEGYVVPNLDALIDAKDLVGFARVGVNVEFDAYVAQGADPAEARIATAHPHGLAQCKRFIAEHRLSTQPATSNAAACRDLIPGEIAFGPAICGELYDITRIGTAIQDYQGAATDFLVLSPRAEVARLLAKPRAEANVEYESVLTLIPLVTGPGVLANLLDVFRDAGLNMTSFISRPIKGRTGTYSFIVTLDAAPWEERFRDALVEIAEHGDWAKTLAVYPRREHPNPPVTSWMLPQGGVRLDDSHLPDDWQNDETVRRELMW | soluble
